Target: D4 (vaccinia virus uracil-DNA glycosylase, tfD4) (Vaccinia virus, UniProt P04303 1-218)
Experiment: X-ray crystallography (2.89 A); undamaged DNA without uracil; glycerol in active sites; no A20
Conditions: protein: recombinant; tags: His6 tag cleaved; three vector-encoded residues GSH remain at N-terminus; chain copies: 2; blunt; palindromic, two copies of the same strand

B1: self-complementary 12mer dsDNA (dsDNA)
DNA 1: GCAAACGTTTGC
DNA 2: GCAAACGTTTGC
  binding result: binds

Source: publication PMC4450493, “Binding of undamaged double stranded DNA to vaccinia virus uracil-DNA Glycosylase”
